pEC50: −log10 of the molar value.
Columns and labels:
[1] = molecular target: Adenosine A2A receptor (human) (human) (UniProt P29274); experiment: cell-based or functional assay
[2] = molecular target: Adenosine A2A receptor (human) (human) (UniProt P29274); experiment: flow cytometry, control antibody, HEK293-A2a cells (A2a Singlets); Parent Singlets median 230
[3] = molecular target: Adenosine A2A receptor (human) (human) (UniProt P29274); experiment: flow cytometry, control antibody, HEK293-A2a cells (A2a Singlets); Parent Singlets median 230; same picture as FIG. 16O
[4] = molecular target: Adenosine A2A receptor (human) (human) (UniProt P29274); experiment: flow cytometry titration 0.05-100 nM IgG, MFI; grey curve and grey number taken as HEK293-A2a cells, black (ND) as parent cells; same data as FIG. 17H
[5] = molecular target: Adenosine A2A receptor (human) (human) (UniProt P29274); experiment: flow cytometry titration 0.05-100 nM IgG, MFI; grey curve and grey number taken as HEK293-A2a cells, black (ND) as parent cells, no legend on the sheet

Adenosine A2A receptor (human) (human), sequence (P29274 whole entry): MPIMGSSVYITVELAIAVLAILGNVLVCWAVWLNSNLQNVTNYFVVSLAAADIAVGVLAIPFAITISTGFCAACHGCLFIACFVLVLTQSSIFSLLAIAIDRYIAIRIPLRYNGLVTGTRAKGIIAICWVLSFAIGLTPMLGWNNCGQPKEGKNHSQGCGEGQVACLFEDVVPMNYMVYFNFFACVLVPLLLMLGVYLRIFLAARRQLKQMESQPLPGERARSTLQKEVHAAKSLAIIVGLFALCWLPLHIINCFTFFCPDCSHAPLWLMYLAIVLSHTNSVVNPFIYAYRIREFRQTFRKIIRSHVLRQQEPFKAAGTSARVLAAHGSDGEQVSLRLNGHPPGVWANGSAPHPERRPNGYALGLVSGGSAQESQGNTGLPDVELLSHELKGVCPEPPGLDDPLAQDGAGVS

Absolute IC50, A2A cAMP antagonist titration [1]	Absolute IC50, LANCE allosteric cAMP assay (titrated IgG, fixed NECA) [1]	Absolute IC50, cAMP allosteric A2A Perkin Elmer assay [1]	Median : RL1-H [2]	Median : RL1-H [3]	pEC50 [4]	pEC50 [5]	Substance
9.43	9.43 nM	0.513 nM					R&D control antibody
			7500	7500	7.66	7.66	Human Adenosine A2aR monoclonal (MAB9497) (antibody)

From patent US20250145724A1
